According to patent WO2008073463A2 (dated 2008):
Each block holds one binder with its values, some of them ahead of it.

B1: soluble human IL-13 receptor alpha2 with a human IgG1 Fc tail (sIL13Rα2-Fc) (Fc fusion, UniProt Q14627 27-343, looked up, not shown: a dimerising Fc or GST)
chain: DTEIKVNPPQDFEIVDPGYLGYLYLQWQPPLSLDHFKECTVEYELKYRNIGSETWKTIITKNLHYKDGFDLNKGIEAKIHTLLPWQCTNGSEVQSSWAETTYWISPQGIPETKVQDMDCVYYNWQYLLCSWKPGIGVLLDTNYNLFYWYEGLDHALQCVDYIKADGQNIGCRFPYLEASDYKDFYICVNGSSENKPIRSSYFTFQLQNIVKPLPPVYLTFTRESSCEIKLKWSIPLGPIPARCFDYEIEIREDDTTLVTATVENETYTLKTTNETRQLCFVVRSKVNIYCSDDGIWSEWSDKQCWEGEDLSKKTLLR
B3: cynomolgus monkey IL-13 (NHP IL-13), recombinant (ligand)
chain: SPVPPSTALKELIEELVNITQNQKAPLCNGSMVWSINLTAGVYCAALESLINVSGCSAIEKTQRMLNGFCPHKVSAGQFSSLRVRDTKIEVAQFVKDLLVHLKKLFREGQFN
notes: also called non-human primate IL-13; cynomolgus IL-13

Key:
[1] = biological target: native human IL-13 (crude preparation from activated human cord blood Th2 cells) (human, UniProt P35225 34-146); assay: cell-based or functional assay
[2] = biological target: B3; assay: cell-based or functional assay
[3] = biological target: B1; assay: not described
[4] = biological target: B3; assay: SPR (BIACORE), antibody captured on goat anti-human IgG Fc, NHP-IL-13 0.09-600 nM, 1:1 model, 22.5 C
[5] = biological target: B3; assay: SPR (BIACORE), Kd = kd / ka

Chain of native human IL-13 (crude preparation from activated human cord blood Th2 cells) (P35225 other isoform, or with tags, fused parts or gaps): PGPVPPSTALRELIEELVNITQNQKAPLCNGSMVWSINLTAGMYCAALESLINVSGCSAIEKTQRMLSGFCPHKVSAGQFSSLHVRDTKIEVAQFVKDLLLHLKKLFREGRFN

Binder: B1
IC50, STAT6 phosphorylation in HT-29 cells (0.3 ng/ml native human IL-13) [1]: 0.33 nM

Binder: B3
binding result [3]: binds

B5: humanized MJ 2-7 V2.11 IgG1 with a mutated CH2 domain (antibody, V domains shown)
VH: EVQLVESGGGLVQPGGSLRLSCAASGFNIKDTYIHWVRQAPGKGLEWIGRIDPANDNIKYDPKFQGRFTISADNAKNSAYLQMNSLRAEDTAVYYCARSEENWYDFFDYWGQGTLVTVSS
VL: DIQMTQSPSSLSASVGDRVTITCRSSQSIVHSNGNTYLEWYQQKPGKAPKLLIYKVSNRFSGVPSRFSGSGSGTDFTLTISSLQPEDFATYYCFQGSHIPYTFGGGTKVEIKR
notes: 'QSΓVΉS' read as QSIVHS; also called huMJ 2-7 V2.11; hMJ2-7 V2-11
koff [4]: 0.000889 s⁻¹
kon [4]: 2.05e+07 M⁻¹ s⁻¹
Kd [5]: 0.043 nM
IC50, STAT6 phosphorylation in HT-29 cells (0.3 ng/ml native human IL-13) [1]: 0.52 nM

B6: humanized MJ 2-7 V2 (hMJ 2-7 VH V2 with hMJ 2-7 VL V2) (antibody, human IgG1, V domains shown)
VH: EVQLVESGGGLVQPGGSLRLSCAASGFNIKDTYIHWVRQAPGKGLEWVARIDPANDNIKYDPKFQGRFTISRDNAKNSLYLQMNSLRAEDTAVYYCARSEENWYDFFDYWGQGTLVTVSS
VL: DIQMTQSPSSLSASVGDRVTITCRSSQSIVHSNGNTYLEWYQQKPGKAPKLLIYKVSNRFSGVPSRFSGSGSGTDFTLTISSLQPEDFATYYCFQGSHIPYTFGGGTKVEIKR
concentration for half-maximal inhibition of native human IL-13 bioactivity, against murine MJ2-7 [1]: ~110 fold greater than murine MJ2-7

Now from value to binder:

monocyte CD23 expression (3 ng/ml NHP IL-13) [2]: ~20 fold less active than MJ2-7 and sIL-13Rα2-Fc
STAT6 phosphorylation in HT-29 cells (0.3 ng/ml native human IL-13) [1]: ~20 fold less active
B2: mouse monoclonal antibody C65 (antibody, V domains shown)
VH: QVQLKESGPGLVAPSQSLSITCTVSGFSLTGYGVNWVRQPPGKGLEWLGIIWGDGSTDYNSALKSRLIINKDNSKSQVFLKMNSLQTDDTARYFCARDKTFYYDGFYRGRMDYWGQGTSVTVSS
VL: DVQMIQSPSSLSASLGDIVTMTCQASQGTSINLNWFQQKPGKAPKLLIFGASNLEDGVPSRFSGSRYGTNFTLTISSLEDEDMATYFCLQHSYLPWTFGGGTKLEIK

IC50, inhibition of CD23 expression (non-human primate IL-13 at 1 ng/ml) [2]: ~0.242 nM
IC50, STAT6 phosphorylation in HT-29 cells (0.3 ng/ml native human IL-13) [1]: 0.48 nM
IC50, inhibition of STAT6 phosphorylation (native human IL-13 at 1 ng/ml) [1]: ~0.293 nM
IC50, tenascin C production by BEAS-2B cells (3 ng/ml native human IL-13) [1]: ~0.1 nM
B4: mouse monoclonal antibody MJ 2-7 (antibody, mouse IgG1, V domains shown)
VH: EVQLQQSGAELVKPGASVKLSCTGSGFNIKDTYIHWVKQRPEQGLEWIGRIDPANDNIKYDPKFQGKATITADTSSNTAYLQLNSLTSEDTAVYYCARSEENWYDFFDYWGQGTTLTVSS
VL: DVLMTQTPLSLPVSLGDQASISCRSSQSIVHSNGNTYLEWYLQKPGQSPKLLIYKVSNRFSGVPDRFSGSGSGTDFTLKISRVEAEDLGVYYCFQGSHIPYTFGGGTKLEIK
